Experimental data as given in the supplement of paper PMC9233669.
Variants at the floor of the assay were thinned out.

Columns and labels:
biotinyl-Ile-oxazolone = experiment: self-aminoacylation, catalytic enhancement (BIO) (fold over background); higher = more active; k-Seq, kA / k0A0; sequences stand for … in GGGAAUGGAUCCACAUCUACGAAUUC…UUCACUGCAGACUUGACGAAGCUG
Method in brief: (§1)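 Mutagenized RNA pools (0.43 μM; 21-nt variable region) were treated with 2–1250 μM of each biotinyl-aminoacyl-oxazolone. Conditions were 50 μL HEPES/NaCl/KCl/MgCl2/CaCl2 buffer, 5% acetonitrile, pH 6.9–7.0, room temperature, 90 minutes. Catalytic enhancement, the median kA relative to the uncatalyzed rate, was derived from streptavidin capture, qPCR and Illumina sequencing.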

biotinyl-Val-oxazolone = experiment: self-aminoacylation, catalytic enhancement (BVO) (fold over background); higher = more active; k-Seq, kA / k0A0; sequences stand for … in GGGAAUGGAUCCACAUCUACGAAUUC…UUCACUGCAGACUUGACGAAGCUG
Method in brief: as §1

biotinyl-Leu-oxazolone = experiment: self-aminoacylation, catalytic enhancement (BLO) (fold over background); higher = more active; k-Seq, kA / k0A0; sequences stand for … in GGGAAUGGAUCCACAUCUACGAAUUC…UUCACUGCAGACUUGACGAAGCUG
Method in brief: as §1

biotinyl-Phe-oxazolone = experiment: self-aminoacylation, catalytic enhancement (BFO) (fold over background); higher = more active; k-Seq, kA / k0A0; sequences stand for … in GGGAAUGGAUCCACAUCUACGAAUUC…UUCACUGCAGACUUGACGAAGCUG
Method in brief: as §1

biotinyl-Trp-oxazolone = experiment: self-aminoacylation, catalytic enhancement (BWO) (fold over background); higher = more active; k-Seq, kA / k0A0; sequences stand for … in GGGAAUGGAUCCACAUCUACGAAUUC…UUCACUGCAGACUUGACGAAGCUG
Method in brief: as §1

biotinyl-Met-oxazolone = experiment: self-aminoacylation, catalytic enhancement (BMO) (fold over background); higher = more active; k-Seq, kA / k0A0; sequences stand for … in GGGAAUGGAUCCACAUCUACGAAUUC…UUCACUGCAGACUUGACGAAGCUG
Method in brief: as §1

Sequence	self-aminoacylation (biotinyl-Ile-oxazolone)	self-aminoacylation (biotinyl-Val-oxazolone)	self-aminoacylation (biotinyl-Leu-oxazolone)	self-aminoacylation (biotinyl-Phe-oxazolone)	self-aminoacylation (biotinyl-Trp-oxazolone)	self-aminoacylation (biotinyl-Met-oxazolone)
CGACACUUCGAGCAAUCGGUC [Fam1B.1 aminoacylation ribozyme variant]	1.24	1.4	1.18	1.37	0.998	1.28
CGACUCUUCAAGCAAUCGGUC [Fam1B.1 aminoacylation ribozyme variant]	1.22	1.32	0.86	3.23	3.07	1.02
CGACUUCAAACAAUCCGUCUG [Fam1A.1 aminoacylation ribozyme variant]	1.27	1.18	1.07	2.5	1.72	1.23
CGACUUCAAACAAUCGCUCUG [Fam1A.1 aminoacylation ribozyme variant]	1.42	1.24	1.42	3.61	3.07	1.36
CGACUUCAAACAAUCGGCCUG [Fam1A.1 aminoacylation ribozyme variant]	3.29	4.06	6.69	277	95.7	3.62
CGACUUCAAACAAUCGGUCAG [Fam1A.1 aminoacylation ribozyme variant]	0.915	0.883	0.772	8.58	4.08	0.707
CGACUUCAAACAAUCGGUCGG [Fam1A.1 aminoacylation ribozyme variant]	2.47	2.08	2.68	9.34	5.43	1.99
CGACUUCAAACAGUCGGUCUG [Fam1A.1 aminoacylation ribozyme variant]	1.83	1.84	1.63	10	1.98	1.71
CGACUUCAAACGAUCGGUCUG [Fam1A.1 aminoacylation ribozyme variant]	1.05	1.13	1.41	1.8	2.1	1.31
CGACUUCACACAAUCGGUCUG [Fam1A.1 aminoacylation ribozyme variant]	1.05	1.14	1.23	1.07	1.01	0.934
CGACUUCUAACAAUCGGUCUG [Fam1A.1 aminoacylation ribozyme variant]	0.905	0.931	0.917	0.961	0.591	0.936
CGAUUUCAAACAAUCGGUCUG [Fam1A.1 aminoacylation ribozyme variant]	1.74	1.66	1.63	16.4	5.97	1.46
CGGUUUGCUAAUAGUCGCAAG [Fam3.1 aminoacylation ribozyme variant]	1.18	1.18	1.17	2.27	1.68	1.17
CUAAACUUCAAGCAAUCGGUC [Fam1B.1 aminoacylation ribozyme variant]	0.956	1.03	1.26	33.1	15.1	0.876
CUAAUUAAAACAAUCGGUCUG [Fam1A.1 aminoacylation ribozyme variant]	0.791	0.738	0.782	0.555	0.564	0.827
CUAAUUCAAACAAUCAGUCUG [Fam1A.1 aminoacylation ribozyme variant]	0.659	0.772	0.674	3.65	1.44	0.702
CUAAUUCAAACAAUCGGUCUU [Fam1A.1 aminoacylation ribozyme variant]	0.743	0.716	0.629	2.49	1.32	0.695
CUAAUUCAAACAAUCGGUGUG [Fam1A.1 aminoacylation ribozyme variant]	0.75	0.659	1.01	0.924	0.691	0.913
CUAAUUCAAACAAUGGGUCUG [Fam1A.1 aminoacylation ribozyme variant]	0.742	0.739	0.643	0.481	0.468	0.777
CUAAUUCAAACAAUUGGUCUG [Fam1A.1 aminoacylation ribozyme variant]	0.839	0.687	0.744	0.608	0.572	0.776
CUAAUUCACACAAUCGGUCUG [Fam1A.1 aminoacylation ribozyme variant]	0.912	0.771	0.85	0.759	0.598	0.874
CUACACCUAGGUCAUCGGGUG [Fam2.2 aminoacylation ribozyme variant]	1.72	1.72	2.12	3.13	2.08	2.27
CUACACCUCAAGCAAUCGGUC [Fam1B.1 aminoacylation ribozyme variant]	1.01	0.976	0.8	2.14	1.41	0.869
